Measurements as given in patent US20210196823A1, “Methods of Treating Metabolic Disease” (Pfizer Inc., priority 2018, published 2021).

Columns and labels:
BMP2 = target: T1, BMP2 (Homo sapiens, UniProt P12643); experiment: Biacore SPR, BMP run against ERFE A4-biotin on CM4 chip; format: binding; settings: BMP 50 nM, MES-Tris buffer pH6.0, 25° C.
T1 sequence (P12643 283-396): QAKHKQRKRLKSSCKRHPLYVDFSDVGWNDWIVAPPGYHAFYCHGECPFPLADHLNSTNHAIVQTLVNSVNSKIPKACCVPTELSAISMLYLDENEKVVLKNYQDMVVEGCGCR
Excerpt: (§1) Iron absorption is tightly regulated by erythropoietic demand via control of hepcidin expression. Erythropoietin (EPO) causes hepcidin suppression, at least in part by increasing synthesis of the hormone erythroferrone (ERFE). ERFE is produced by erythroblasts after bleeding or EPO treatment, and acts on hepatocytes to suppress hepcidin expression and increase iron availability. ERFE knock out mice fail to suppress hepcidin after phlebotomy and show delayed recovery from blood loss. Furthermore, serum ERFE concentrations are increased in humans after blood loss and EPO administration, and in β-thalassemia patients. Hepcidin expression is modulated via the BMP/SMAD signalling pathway. […] We sought to determine whether the mechanism by which ERFE suppresses hepcidin is through interaction with BMP. Binding constants were measure using Biacore SPR. BMPs 2, 4, 6 at 50 nM was run against ERFE A4-biotin amine coupled to CM4 sensor chip in MES-Tris buffer pH6.0, 25° C.

BMP4 = target: T2, BMP4 (Homo sapiens, UniProt P12644); experiment: as above; format: binding; settings: BMP 50 nM, MES-Tris buffer pH6.0, 25° C.
T2 sequence (P12644 293-408): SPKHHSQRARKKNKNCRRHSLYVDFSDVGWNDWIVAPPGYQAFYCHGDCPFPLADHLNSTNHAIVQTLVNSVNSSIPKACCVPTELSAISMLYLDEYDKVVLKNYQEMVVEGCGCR
Excerpt: as §1

BMP6 = target: T3, BMP6 (Homo sapiens, UniProt P22004); experiment: as above; format: binding
T3 sequence (P22004 375-513): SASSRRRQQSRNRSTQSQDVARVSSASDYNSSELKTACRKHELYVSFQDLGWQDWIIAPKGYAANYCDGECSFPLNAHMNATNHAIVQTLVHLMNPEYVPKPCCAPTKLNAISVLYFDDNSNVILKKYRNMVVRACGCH
Excerpt: as §1

Huh7 cells = experiment: HAMP and ID1 qRT-PCR in Huh7 cells treated with BMPs with or without mouse ERFE; format: cell-based; settings: a variety of different cell types
Procedure: (b) Gene expression microarray: Microarray analysis of Huh7 cells treated with mouse or human erythroferrone was carried out to test the activity of erythroferrone on the BMP/SMAD signalling pathway. Generally cell treatments were carried out according to the following protocol: Huh7 and HepG2 were cultured in Dulbecco's Modified Eagle's Medium—High Glucose (Sigma), supplemented with 10% Fetal Bovine Serum (Sigma), 1% Penicillin-Streptomycin (Sigma) and 1% L-Glutamine (Sigma), unless otherwise indicated. Cells were plated 24 h before treatments in 24-well (gene expression analysis) or 12-well (protein analysis) cell culture plates. At the time of treatment, cells were washed with PBS and fresh media was added.
(c) RNA isolation, cDNA synthesis and qRT-PCR: Suppression of several BMP-target genes: HAMP, ID1, ID3, SMAD6 and SMAD7 was further confirmed by qRT-PCR. Cells were lysed and RNA was isolated using the RNeasy Plus kit (Qiagen), followed by RNA quantification and quality assessment using Nanodrop (Thermo Fisher). cDNA was synthesized using the High Capacity RNA-to-cDNA kit (Applied Biosystems). Gene expression was assessed using quantitative real-time PCR with Taqman Gene Expression Master Mix and inventoried Taqman Gene expression assays (Applied Biosystems) specific for the genes of interest according to the manufacturer's instructions. […]

abdominal preadipocytes = experiment: Western blot of phospho- and total SMAD1/5/8 in preadipocytes; format: cell-based, Human; settings: abdominal cells, 30 minutes
Procedure: (a) Primary pre-adipocyte isolation. Human primary pre-adipocytes were prepared by isolation from white adipose tissue (WAT) biopsies taken under local anesthetic (1% lignocaine) by needle aspiration at the level of the umbilicus (ASAT) and from the upper-, outer-quadrant of the gluteal region (GSAT). Primary preadipocytes were isolated from ASAT and GSAT biopsies by mechanically mincing using scissors, washed twice with Hanks' buffered salt solution to remove contaminating blood, and then enzymatically digested in 1 mg/ml collagenase (Roche Applied Science) in Hanks' buffered salt solution in a shaking water bath (90 rpm) at 37° C. for 45 min. The digested tissue was centrifuged at 1000 rpm for 5 min at 4° C. The pellet containing stromal-vascular cells was resuspended in Dulbecco's modified Eagle's medium/F12 Ham's nutrient mixture (v/v, 1:1) containing 17.5 mM glucose and supplemented with 10% foetal calf serum, 0.25 ng/ml fibroblast growth factor, 2 mM glutamine, 100 units/ml penicillin and 100 μg/ml streptomycin. Cell stocks of APAD and GPAD cells were prepared and stored in liquid nitrogen for future studies. […]

B1: ERFE: hormone erythroferrone (FAM132b); recombinant protein, species or construct not stated at the place (SPR used ERFE A4-biotin) (protein)
chain: AAGLGSPEPGAPSRSAAAAEPPPGNELPRGPGESRAGPAARPPEPTAERAHSVDPRDAWMLFVRQSDKGVNGKKRSRGKAKKLKFGLPGPPGPPGPQGPPGPIIPPEALLKEFQLLLKGAVRQRERAEPEPCTCGPAGPVAASLAPVSATAGEDDDDVVGDVLALLAAPLAPGPRAPRVEAAFLCRLRRDALVERRALHELGVYYLPDAEGAFRRGPGLNLTSGQYRAPVAGFYALAATLHVALGEPPRRGPPRPRDHLRLLICIQSRCQRNASLEAIMGLESSSELFTISVNGVLYLQMGQWTSVFLDNASGCSLTVRSGSHFSAVLLGV
- Kd of ERFE binding to BMP2 (BMP2): nanomolar
- Kd of ERFE binding to BMP4 (BMP4): nanomolar
- Kd of ERFE binding to BMP6 (BMP6; BMP 50 nM, MES-Tris buffer pH6.0, 25° C.): nanomolar
- tightness of ERFE binding among BMPs 2, 4 and 6 (BMP6; SPR (Biacore)): most tightly
- inhibitory action on BMP2 and 4 and BMP2/6 heterodimer (Huh7 cells): Inhibitory action is also seen
- BMP2-induced SMAD1/5/8 phosphorylation on addition of ERFE (abdominal preadipocytes): diminished
